The target in the experiment is T1, mouse CXCR3 (mouse) (UniProt O88410).
T1 sequence (looked up): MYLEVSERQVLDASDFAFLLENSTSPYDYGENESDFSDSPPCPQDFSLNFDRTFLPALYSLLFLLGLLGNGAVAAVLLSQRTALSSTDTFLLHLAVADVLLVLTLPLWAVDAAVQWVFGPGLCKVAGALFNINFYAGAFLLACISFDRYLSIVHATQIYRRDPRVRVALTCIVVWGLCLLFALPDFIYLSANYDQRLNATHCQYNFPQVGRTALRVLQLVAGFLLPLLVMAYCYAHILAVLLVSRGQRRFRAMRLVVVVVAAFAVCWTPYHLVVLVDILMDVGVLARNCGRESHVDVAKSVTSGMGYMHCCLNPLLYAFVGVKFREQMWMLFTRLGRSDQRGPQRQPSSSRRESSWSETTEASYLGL
The experiment is described as follows: cell-based or functional assay.

“recombinant CXCL10 (Peprotech, Inc.) (ligand)” had a chemokine concentration at which chemotaxis/chemoinvasion responses of B16F10 cells were obtained of 50 to 100 ng/mL.

B1: recombinant CXCL11 (Peprotech, Inc.) (ligand, UniProt O14625 22-94, looked up, species assumed)
C-X-C motif chemokine 11: FPMFKRGRCLCIGPGVKAVKVADIEKASIMYPSNNCDKIEVIITLKENKGQRCLNPKSKQARLIIKKVERKNF
In turn, B1 had a chemokine concentration at which chemotaxis/chemoinvasion responses of B16F10 cells were obtained of 50 to 100 ng/mL.

B2: recombinant CXCL9 (Peprotech, Inc.) (ligand, UniProt P18340 22-126, looked up, species assumed)
C-X-C motif chemokine 9: TLVIRNARCSCISTSRGTIHYKSLKDLKQFAPSPNCNKTEIIATLKNGDQTCLDPDSANVKKLMKEWEKKISQKKKQKRGKKHQKNMKNRKPKTPQSRRRSRKTT
The molecule B2 displayed a chemokine concentration at which chemotaxis/chemoinvasion responses of B16F10 cells were obtained of 50 to 100 ng/mL; a diffusely-stained B16F10 cell population 5 min after CXCL9 (100 ng/ml), phalloidin staining of 22.8%; an increase in intracellular Ca2+ concentration after CXCL9 (300 ng/ml) in CXCR3 antisense-transfectant B16F10 clones (CXCR3 protein reduced to about 20-25%) of 5%; an increase in intracellular Ca2+ concentration of B16F10 cells after CXCL9 (300 ng/ml), Fluo-3 AM of 15 to 20%. For the same molecule, the proportion of actin filament polarized B16F10 cells 5 min after CXCL9 (100 ng/ml), phalloidin staining worked out at 38.4%.
